Assay results: article PMC7251212, “Molecular Insight into TdfH-Mediated Zinc Piracy from Human Calprotectin by Neisseria gonorrhoeae” (mBio, 2020)

T1: recombinant TdfH (Neisseria gonorrhoeae TonB-dependent transporter, NGO0952) (Neisseria gonorrhoeae, UniProt A0ACH0F8A9 1-922)
T1 construct: TdfH, Neisseria gonorrhoeae, locus NGO0952; full-length tdfH gene, codon-optimised for E. coli; The tag of pHIS2 is not described: the N-terminal 10x His tag and TEV site are told of the modified pET20b vector, which was not the source of the protein used; also called recombinantly produced TdfH; purified TdfH; not shown: His tag (from the Ni-NTA purification)
T1 sequence: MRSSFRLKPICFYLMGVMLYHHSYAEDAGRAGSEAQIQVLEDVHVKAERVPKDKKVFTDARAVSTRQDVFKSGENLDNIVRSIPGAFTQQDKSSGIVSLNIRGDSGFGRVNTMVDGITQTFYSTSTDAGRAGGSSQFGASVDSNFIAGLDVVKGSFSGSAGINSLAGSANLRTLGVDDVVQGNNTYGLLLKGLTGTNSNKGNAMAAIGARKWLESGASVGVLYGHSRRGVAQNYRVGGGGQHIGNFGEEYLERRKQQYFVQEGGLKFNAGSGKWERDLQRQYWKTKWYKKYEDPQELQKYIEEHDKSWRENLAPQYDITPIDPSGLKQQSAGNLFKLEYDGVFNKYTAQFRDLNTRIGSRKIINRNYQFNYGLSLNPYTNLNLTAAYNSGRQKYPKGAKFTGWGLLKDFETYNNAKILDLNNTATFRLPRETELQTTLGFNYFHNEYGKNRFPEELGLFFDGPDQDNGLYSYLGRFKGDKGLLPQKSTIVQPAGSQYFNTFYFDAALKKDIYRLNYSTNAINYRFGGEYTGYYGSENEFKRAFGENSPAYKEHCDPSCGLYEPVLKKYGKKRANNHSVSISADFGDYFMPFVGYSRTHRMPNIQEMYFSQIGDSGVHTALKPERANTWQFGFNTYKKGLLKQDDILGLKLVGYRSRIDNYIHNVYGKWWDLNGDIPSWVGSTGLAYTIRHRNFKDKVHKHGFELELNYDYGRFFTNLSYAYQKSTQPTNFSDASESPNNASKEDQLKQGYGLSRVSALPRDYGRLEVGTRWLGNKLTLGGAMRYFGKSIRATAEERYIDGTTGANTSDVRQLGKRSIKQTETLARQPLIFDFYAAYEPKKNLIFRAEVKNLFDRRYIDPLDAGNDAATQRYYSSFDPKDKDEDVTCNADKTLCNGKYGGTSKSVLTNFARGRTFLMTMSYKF


Tests used:
[1] = molecular target: T1, recombinant TdfH (Neisseria gonorrhoeae …); assay: ITC; Nano ITC, 25°C, 1x PBS with 0.05% DDM; TdfH (300 μl, 20 μM) in the cell, CP sample (200 μM) in 20 injections of 2.5 μl; fitted with NanoAnalyze to a two-state (multisite) model, TKO to a single-site model; conditions: both partners purified
TdfH = molecular target: T2, TdfH (Neisseria gonorrhoeae, UniProt A0ACH0F8A9 1-922); assay: ITC; CP sample (200 uM) injected into TdfH (300 ul at 20 uM) in the cell, 20 injections of 2.5 ul every 300 s, 25 C, 1x PBS with 0.05% DDM; fitted with NanoAnalyze (multi-site model; independent model for TKO); conditions: both partners purified
T2 construct: TdfH, TonB-dependent transporter of Neisseria gonorrhoeae, locus NGO0952; full-length tdfH gene, codon optimised for E. coli; In 0.05% DDM; also called recombinant TdfH; NGO0952

| Binder | Kd [1] | stoichiometry N (TdfH) |
| --- | --- | --- |
| total knockout human calprotectin (both Zn binding sites mutated) (complex, Positions are not printed here. They follow the cited calprotectin site-knockout constructs and fit the printed counts (4 His-Asn in site 1; 3 His-Asn plus Asp-Ser in site 2). Cys kept as wild type …) chain 1: MLTELEKALNSIIDVYNKYSLIKGNFNAVYRDDLKKLLETECPQYIRKKGADVWFKELDINTDGAVNFQEFLILVIKMGVAANKKSNEESHKE chain 2: MTCKMSQLERNIETIINTFNQYSVKLGHPSTLNQGEFKELVRKDLQNFLKKENKNEKVIEHIMEDLDTNADKQLSFEEFIMLMARLTWASNEKMNEGDEGPGHHHKPGLGEGTP | 13 µM | – |
| total knockout hCP (complex, Same construct as m7. Positions come from the cited constructs and are not printed here.) chain 1: MLTELEKALNSIIDVYNKYSLIKGNFNAVYRDDLKKLLETECPQYIRKKGADVWFKELDINTDGAVNFQEFLILVIKMGVAANKKSNEESHKE chain 2: MTCKMSQLERNIETIINTFNQYSVKLGHPSTLNQGEFKELVRKDLQNFLKKENKNEKVIEHIMEDLDTNADKQLSFEEFIMLMARLTWASNEKMNEGDEGPGHHHKPGLGEGTP | – | 0.67 ± 0.12 |
